# Results as given in US20130071921A1 (Pfizer, published 2013).
# Positions count from the first letter of the chain named.
# B1: L2.1B5 (Fab, V domains shown)
# VH: EVQLVESGGGLVQPGGSLRLSCAASGFTFSSYAISWVRQAPGKGLEWVASVSGWGDTYYPDSVKGRFTISRDNAKNSLYLQMNSLRAEDTAVYYCATSLENYAFDYWGQGTTVTVSS
# VL: EIVLTQSPATLSLSPGERATLSCRASESVDDFGISFMNWYQQKPGQAPRLLIYAASKQGSGIPARFSGSGSGTDFTLTISSLEPEDFAVYYCQQSKEVPPTFGGGTKVEIK
# notes: tested as Fab (E. coli lysate, screening mode); human kappa CL and IgG2 CH1 not included here
# B2: L2.1E5 (Fab, V domains shown)
# VH: B1 VH with W54G, D56R
# VL: B1 VL
# notes: tested as Fab (E. coli lysate, screening mode); human kappa CL and IgG2 CH1 not included here; printed changes identical to clone 24
# B3: L2.4D11 (Fab, V domains shown)
# VH: B1 VH with G55M
# VL: B1 VL
# notes: as for B1
# B4: 24m5 (Fab, V domains shown)
# VH: B1 VH with W54G, D56R
# VL: B1 VL with A55G, S56T
# notes: as for B1
# B5: 2H10.33L (Fab, V domains shown)
# VH: B1 VH with G55F, E100Q
# VL: B1 VL with M37I, A55G, S95L
# notes: as for B1
# B6: L2.1F11 (Fab, V domains shown)
# VH: B1 VH with G55L, E100Q
# VL: B1 VL
# notes: as for B1
# B7: 24m4 (Fab, V domains shown)
# VH: B1 VH with W54G, D56R
# VL: B1 VL with M37L
# notes: as for B1
# B8: 24m6 (Fab, V domains shown)
# VH: B1 VH with W54G, D56R
# VL: B1 VL with A55G
# notes: as for B1
# B9: L2.1G8 (Fab, V domains shown)
# VH: B1 VH with G55F
# VL: B1 VL
# notes: as for B1
# B10: L2.1G4 (Fab, V domains shown)
# VH: B1 VH with G55F, Y106K
# VL: B1 VL
# notes: as for B1
# B11: 2G9.33L (Fab, V domains shown)
# VH: B1 VH with E100R
# VL: B1 VL with M37I, A55G, S95L
# notes: as for B1
# B12: L2.4B10 (Fab, V domains shown)
# VH: B1 VH with G55Y
# VL: B1 VL
# notes: as for B1
# B13: L2.1B11 (Fab, V domains shown)
# VH: B1 VH with G55F, E100R
# VL: B1 VL
# notes: as for B1
# B14: 1F10.33L (Fab, V domains shown)
# VH: B1 VH with W54G, G55F, D56Q, E100D
# VL: B1 VL with M37I, A55G, S95L
# notes: human kappa CL and IgG2 CH1 not included here
# B15: L2.1D12 (Fab, V domains shown)
# VH: B1 VH with G55F, E100Q
# VL: B1 VL
# notes: as for B1
# B16: 24 (Fab, V domains shown)
# VH: B1 VH with W54G, D56R
# VL: B1 VL
# notes: positive control Fab of the screening assays; human kappa CL and IgG2 CH1 not included here; printed changes identical to L2.1E5; also called clone 24; Clone 24 Fab
# Molecular target: T1, Recombinant human Dkk-1 (R&D Systems cat no. 1096-DK/CF), 10xHis tag at the C terminal (human, UniProt O94907 32-266)
# T1 construct: the actual N-terminus of the purified protein is marked in bold italic after residue 30, but the mark is an image lost in the text; also called rhuDkk-1; hDkk-1
# T1 sequence: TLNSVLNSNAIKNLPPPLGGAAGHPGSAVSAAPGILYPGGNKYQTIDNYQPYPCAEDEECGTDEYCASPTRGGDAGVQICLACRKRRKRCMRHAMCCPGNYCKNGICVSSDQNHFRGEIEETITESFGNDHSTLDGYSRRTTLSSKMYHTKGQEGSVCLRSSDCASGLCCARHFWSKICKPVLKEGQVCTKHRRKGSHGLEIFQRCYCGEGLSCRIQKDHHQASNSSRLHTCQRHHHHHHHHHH
# Test: theoretical: koff / estimated kon 1e6 1/Ms (SPR screening 37C)
# Method: (§1) For screening assays to determine binding and dissociation rates of huMabJC18 variants to human Dkk1, either BIAcore or ProteOn XPR36 (BioRad, Inc.) systems were used. For the BIAcore assay, biotinylated-human Dkk1 was captured on SA (streptavidin) BIAcore chips according to the supplier's instructions. Biotinylated-human Dkk-1 protein was diluted into HBS-EP, and injected over the chip at a concentration of 5 μg/mL. Flow times across the individual chip channels were selected to achieve an antigen density of approximately 500-600 response units (RU). HBS-EP buffer was used as running buffer. Filtered recombinant E.coli cell lysates were injected at high temperature (37° C.) for 1 min at 30 ul/min, allowing a 1-5 min dissociation phase. Surfaces were regenerated with 8 mM NaOH+8% ethanol. A positive control Fab (clone 24) was injected twice at the start of the experiment, and again at the end of the assay to assess reproducibility.
# For the ProteOn assay, biotinylated human Dkk-1 was injected for 1 min at serial fold dilutions empirically determined to yield different levels of immobilization (150-3000 RU) on five channels of a ProteOn NLC Neutravidin sensor chip. The sixth channel was left unmodified to serve as a reference surface. Recombinant Fabs in filtered E. coli lysates were injected at high temperature (37° C.) for 50 sec at 20 μl/min. Running buffer consisted of PBS+1 mg/ml BSA+0.005% Tween-20. The ProteOn is configured such that each injection flows over each of the five Dkk-1 channels as well as the reference channel, and six Fab samples can be injected simultaneously. Fab dissociation from the Dkk-1 surface was monitored for 20 min. The chip surface was regenerated with a 30-sec injection of 8% EtOH, 8 mM NaOH. Clone 24 Fab was used as control. Level of binding during association, and rate of dissociation for each clone was very consistent between different ligand channels. […]
row,Binder,Kd [nM]
1,B1,4.42
2,B2,5.7
3,B3,3.26
4,B4,8.74
5,B5,0.148
6,B6,2.12
7,B7,11.8
8,B8,9.14
9,B9,2.55
10,B10,3.12
11,B11,0.283
12,B12,3.45
13,B13,2.07
14,B14,0.09
15,B15,2.78
16,B16,11.4

# Molecular target: T1, Recombinant human Dkk-1 (R&D Systems …)
# Test: SPR screening 37C (BIAcore/ProteOn), Fab lysate over biotinylated human Dkk-1
# Method: as §1
# For the ProteOn assay, biotinylated human Dkk-1 was injected for 1 min at serial fold dilutions empirically determined to yield different levels of immobilization (150-3000 RU) on five channels of a ProteOn NLC Neutravidin sensor chip. The sixth channel was left unmodified to serve as a reference surface. Recombinant Fabs in filtered E. coli lysates were injected at high temperature (37° C.) for 50 sec at 20 μl/min. Running buffer consisted of PBS+1 mg/ml BSA+0.005% Tween-20. The ProteOn is configured such that each injection flows over each of the five Dkk-1 channels as well as the reference channel, and six Fab samples can be injected simultaneously. Fab dissociation from the Dkk-1 surface was monitored for 20 min. The chip surface was regenerated with a 30-sec injection of 8% EtOH, 8 mM NaOH. Clone 24 Fab was used as control. Level of binding during association, and rate of dissociation for each clone was very consistent between different ligand channels.
row,Binder,koff [s⁻¹]
1,B1,0.00442
2,B2,0.0057
3,B3,0.00326
4,B4,0.00874
5,B5,0.000148
6,B6,0.00212
7,B7,0.0118
8,B8,0.00914
9,B9,0.00255
10,B10,0.00312
11,B11,0.000283
12,B12,0.00345
13,B13,0.00207
14,B14,8.99e-05
15,B15,0.00278
16,B16,0.0114
